One molecule from patent US20220251236A1 (Boehringer Ingelheim, published 2022) can be followed below.

One may read the Kd as the equilibrium constant for the complex coming apart.

Test [1] addresses T1, EGF4+5.
T1 construct: also called Hu DLL3 EGF4+5 on HEK293 cells
T1 membrane-anchored DLL3 subdomain construct: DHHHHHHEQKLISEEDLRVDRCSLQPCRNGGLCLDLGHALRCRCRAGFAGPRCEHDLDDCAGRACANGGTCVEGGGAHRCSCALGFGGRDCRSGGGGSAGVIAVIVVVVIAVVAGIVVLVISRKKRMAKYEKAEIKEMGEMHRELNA
Nature of the test: flow cytometry on HEK293 cells expressing the DLL3 subdomain construct, 1.6 nM binder, PE anti-human secondary, control: secondary antibody only. The procedure: DLL3/CD3 binding proteins were produced by transient transfection of CHO-E cells with the pTT5 vectors carrying the chain-encoding genes, as described in Example 2. […] Bound molecules were detected with PE-conjugated anti-human secondary antibody (Sigma-Aldrich, #P8047). As negative control, cells were incubated with secondary antibody only.
The samples were measured by flow-cytometry. […] The sequences of the epitope domains are listed in Example 5, Table 3.
For orientation: Flow cytometry measures light scatter and fluorescence of single cells or particles in a stream.

Test [2] concerns the target T2, EGF5+6.
T2 construct: also called Hu DLL3 EGF5+6 on HEK293 cells
T2 membrane-anchored DLL3 subdomain construct: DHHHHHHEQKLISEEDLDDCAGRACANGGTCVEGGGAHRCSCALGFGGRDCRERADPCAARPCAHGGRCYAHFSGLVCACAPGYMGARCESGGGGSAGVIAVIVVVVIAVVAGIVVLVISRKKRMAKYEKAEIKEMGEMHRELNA
The test is described as follows: flow cytometry on HEK293 cells expressing the DLL3 subdomain construct, PE anti-human secondary, control: secondary antibody only. The method in brief:
(§1)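 Binders tested on HEK293 cells displaying the DLL3 subdomain construct; bound molecules detected by flow cytometry using PE-conjugated anti-human secondary antibody. Negative control: cells with secondary antibody only.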

The target in test [3] is T3, EGF1+2.
T3 construct: also called Hu DLL3 EGF1+2 on HEK293 cells
T3 membrane-anchored DLL3 subdomain construct: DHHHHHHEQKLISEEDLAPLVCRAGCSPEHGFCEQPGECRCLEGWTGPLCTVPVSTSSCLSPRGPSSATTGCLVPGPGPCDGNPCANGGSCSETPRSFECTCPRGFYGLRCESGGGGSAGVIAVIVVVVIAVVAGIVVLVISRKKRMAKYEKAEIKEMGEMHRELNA
The description is as above. In a few lines:
as §1

In test [4] the target is T4, EGF6+MEMBRANE PROXIMAL PEPTIDE.
T4 construct: also called Hu DLL3 EGF6+membrane proximal peptide on HEK293 cells
T4 membrane-anchored DLL3 subdomain construct: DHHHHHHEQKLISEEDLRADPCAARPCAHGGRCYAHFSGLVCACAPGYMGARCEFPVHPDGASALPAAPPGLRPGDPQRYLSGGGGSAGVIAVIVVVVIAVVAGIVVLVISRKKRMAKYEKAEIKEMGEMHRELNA
The description is as above. In a few lines: as §1

The target of test [5] is T5, EGF2+3.
T5 construct: also called Hu DLL3 EGF2+3 on HEK293 cells
T5 membrane-anchored DLL3 subdomain construct: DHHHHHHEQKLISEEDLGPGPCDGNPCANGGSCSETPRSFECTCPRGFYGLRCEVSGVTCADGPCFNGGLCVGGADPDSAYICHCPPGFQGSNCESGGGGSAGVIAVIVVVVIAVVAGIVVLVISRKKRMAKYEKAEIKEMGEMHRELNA
Described as above. In a few lines: as §1

The target in test [6] is T6, Human CD3 E+G HuFc-6xHis (human).
T6 construct: also called hu CD3εγ-Fc
T6 sequence (chain, as listed by the source limits assumed): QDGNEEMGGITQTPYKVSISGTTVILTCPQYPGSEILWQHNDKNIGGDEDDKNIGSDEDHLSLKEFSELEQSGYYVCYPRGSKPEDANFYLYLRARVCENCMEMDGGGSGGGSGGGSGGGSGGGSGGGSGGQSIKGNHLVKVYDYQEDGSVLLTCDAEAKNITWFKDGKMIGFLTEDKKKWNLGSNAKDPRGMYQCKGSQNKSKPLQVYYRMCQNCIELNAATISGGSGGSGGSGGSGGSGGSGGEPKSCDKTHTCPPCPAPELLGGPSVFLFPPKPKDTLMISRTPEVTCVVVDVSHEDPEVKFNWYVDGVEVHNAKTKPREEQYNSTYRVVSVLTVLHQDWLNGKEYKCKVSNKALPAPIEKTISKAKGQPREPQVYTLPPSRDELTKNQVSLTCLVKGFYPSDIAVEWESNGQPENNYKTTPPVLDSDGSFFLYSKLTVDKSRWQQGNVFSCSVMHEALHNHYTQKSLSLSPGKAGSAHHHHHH
The test is described as follows: SPR (ProteOn XPR36), HuCD3E_HuCD3G-Fc amine-coupled, bispecific as analyte, Example 4B. In a few lines:
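Human CD3ε/γ-Fc fusion is amine-coupled to the chip at pH 4.5. Anti-DLL3/CD3 bispecifics are injected as analyte in PBS-T-EDTA at 30 μl/min, with 600 s association and 1800 s dissociation. Binding kinetics are measured by SPR.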

Test [7] deals with T7, trypsin inhibitor from glycine max soybean (Glycine max (soybean)).
T7 construct: also called Tryp
T7 sequence (P01070 25-205): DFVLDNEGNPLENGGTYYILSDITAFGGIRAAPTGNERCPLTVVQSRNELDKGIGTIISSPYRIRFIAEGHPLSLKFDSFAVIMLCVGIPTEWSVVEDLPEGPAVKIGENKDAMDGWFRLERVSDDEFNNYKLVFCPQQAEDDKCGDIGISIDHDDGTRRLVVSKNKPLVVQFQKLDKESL
The test is described as follows: SPR (Biacore T200), trypsin inhibitor on CM5 chip, sample at 1 µM. The source says:
To prepare the surface for the non-specific binding experiment, chicken egg white lysozyme and trypsin inhibitor from glycine max soybean were coupled manually to a series S CM5 chip with the surface density of 3000-5000 RU using the amine coupling kit according to the manufacture instructions.
A general note: In SPR one partner is held on a chip, and binding of the other changes the refractive index at the surface.

B1: DLL3#8/CD3#1 (bispecific antibody, human IgG1, kappa, lambda, L234A L235A)
chain 1: not shown
chain 2: EAVVTQEPSLTVSPGGTVTLTCRSSTGAVTTSNYANWVQEKPGQLPRGLIGGTNKRAPWVPARFSGSLLGGKAALTLSGAQPEDEAEYFCALWYSNLWVFGGGTKLTVLGQPKAAPSVTLFPPSSEELQANKATLVCLISDFYPGAVKVAWKADGSPVNTGVETTTPSKQSNNKYAASSYLSLTPEQWKSHRSYSCQVTHEGSTVEKTVAPAECSGGGGSEGKSSGSGSESKSTEGKSSGSGSESKSTGGGGSEVQLVESGGGLVQPGGSLKLSCAASGFTFNTYAMNWVRQAPGKGLEWVARIRSKYNNYATYYADSVKDRFTISRDDSKNTAYLQMNNLKTEDTAVYYCVRHGNFGNSYVSWFAYWGQGTLVTVSAASTKGPSVFPLAPSSKSTSGGTAALGCLVKDYFPEPVTVSWNSGALTSGVHTFPAVLQSSGLYSLSSVVTVPSSSLGTQTYICNVNHKPSNTKVDKRVEPKSCDKTHTCPPCPAPEAAGGPSVFLFPPKPKDTLMISRTPEVTCVVVDVSHEDPEVKFNWYVDGVEVHNAKTKPREEQYNSTYRVVSVLTVLHQDWLNGKEYKCKVSNKALPAPIEKTISKAKGQPREPQVYTLPPSREEMTKNQVSLSCAVKGFYPSDIAVEWESNGQPENNYKTTPPVLDSDGSFFLVSKLTVDKSRWQQGNVFSCSVMHEALHNRFTQKSLSLSPG
notes: Heterodimer of one DLL3 chain and one CD3 chain (scFab-Fc, knob-in-hole)
On to B1, for which the binding result was “binds” in test [1]; “no binding (tested: 1.6 nM)” in test [2]; “no binding (tested: 1.6 nM)” in test [3]; “no binding (tested: 1.6 nM)” in test [4]; “no binding (tested: 1.6 nM)” in test [5]. This molecule also returned a Kd in test [6] of 2 nM. In test [7], the “Non-specific binding (RU)” value is 18 RU.
